From patent US20090099029A1, “Methods and substrates for conducting assays” (Invitrogen Corporation, priority 2005, published 2009)
Changes are numbered by the printed parent chain.

System: kinases of Table 6 on Myelin Basic Protein (MBP)
Assay: Kinase assay using MBP substrate, ProQ Diamond stain (Table 6)
Type: biochemical
Settings: kinase printed on MBP-coated slide; 20 uM ATP, 30° C.; ProQ Diamond Microarray Stain; graded Strong/Weak/Negative
Summary of the method: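 Bovine dephosphorylated MBP coated on aldehyde- or epoxy-glass slides, kinases printed on top; reaction buffer pH 7.5 with 4 mM MgCl2, 20 uM ATP, 5% DMSO, ± inhibitor, at 30° C. Phosphorylation detected by ProQ Diamond stain, 30 min in dark.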

B1: ROS1 (protein)
chain: HRRLKNQKSAKEGVTVLINEDKELAELRGLAAGVGLANACYAIHTLPTQEEIENLPAFPREKLTLRLLLGSGAFGEVYEGTAVDILGVGSGEIKVAVKTLKKGSTDQEKIEFLKEAHLMSKFNHPNILKQLGVCLLNEPQYIILELMEGGDLLTYLRKARMATFYGPLLTLVDLVDLCVDISKGCVYLERMHFIHRDLAARNCLVSVKDYTSPRIVKIGDFGLARDIYKNDYYRKRGEGLLPVRWMAPESLMDGIFTTQSDVWSFGILIWEILTLGHQPYPAHSNLDVLNYVQTGGRLEPPRNCPDDLWNLMTQCWAQEPDQRPTFHRIQDQLQLFRNFFLNSIYKSRDEANNSGVINESFEGEDGDVICLNSDDIMPVALMETKNREGLNYMVLATECGQGEEKSEGPLGSQESESCGLRKEEKEPHADKDFCQEKQVAYCPSGKPEGLNYACLTHSGYGDGSD
modifications: left off: a dimerising Fc or GST
With B1 the “MBP Kinase Activity” value was “Strong”.

B2: ABL2(ARG) (protein)
chain: MGQQVGRVGEAPGLQQPQPRGIRGSSAARPSGRRRDPAGRTTETGFNIFTQHDHFASCVEDGFEGDKTGGSSPEALHRPYGCDVEPQALNEAIRWSSKENLLGATESDPNLFVALYDFVASGDNTLSITKGEKLRVLGYNQNGEWSEVRSKNGQGWVPSNYITPVNSLEKHSWYHGPVSRSAAEYLLSSLINGSFLVRESESSPGQLSISLRYEGRVYHYRINTTADGKVYVTAESRFSTLAELVHHHSTVADGLVTTLHYPAPKCNKPTVYGVSPIHDKWEMERTDITMKHKLGGGQYGEVYVGVWKKYSLTVAVKTLKEDTMEVEEFLKEAAVMKEIKHPNLVQLLGVCTLEPPFYIVTEYMPYGNLLDYLRECNREEVTAVVLLYMATQISSAMEYLEKKNFIHRDLAARNCLVGENHVVKVADFGLSRLMTGDTYTAHAGAKFPIKWTAPESLAYNTFSIKSDVWAFGVLLWEIATYGMSPYPGIDLSQVYDLLEKGYRMEQPEGCPPKVYELMRACWKWSPADRPSFAETHQAFETMFHDSSISEEVAEELGRAASSSSVVPYLPRLPILPSKTRTLKKQVENKENIEGAQDATENSASSLAPGFIRGAQASSGSPALPRKQRDKSPSSLLEDAKETCFTRDRKGGFFSSFMKKRNAPTPPKRSSSFREMENQPHKKYELTGNFSSVASLQHADGFSFTPAQQEANLVPPKCYGGSFAQRNLCNDDGGGGGGSGTAGGGWSGITGFFTPRLIKKTLGLRAGKPTASDDTSKPFPRSNSTSSMSSGLPEQDRMAMTLPRNCQRSKLQLERTVSTSSQPEENVDRANDMLPKKSEESAAPSRERPKAKLLPRGATALPLRTPSGDLAITEKDPPGVGVAGVAAAPKGKEKNGGARLGMAGVPEDGEQPGWPSPAKAAPVLPTTHNHKVPVLISPTLKHTPADVQLIGTDSQGNKFKLLSEHQVTSSGDKDRPRRVKPKCAPPPPPVMRLLQHPSICSDPTEEPTALTAGQSTSETQEGGKKAALGAVPISGKAGRPVMPPPQVPLPTSSISPAKMANGTAGTKVALRKTKQAAEKISADKISKEALLECADLLSSALTEPVPNSQLVDTGHQLLDYCSGYVDCIPQTRNKFAFREAVSKLELSLQELQVSSAAAGVPGTNPVLNNLLSCVQEISDVVQR
modifications: left off: small tags and cut ends
B2 was tested, and the “MBP Kinase Activity” value was “Weak”.

B3: PDGFRB (protein)
chain: MLWQKKPRYEIRWKVIESVSSDGHEYIYVDPMQLPYDSTWELPRDQLVLGRTLGSGAFGQVVEATAHGLSHSQATMKVAVKMLKSTARSSEKQALMSELKIMSHLGPHLNVVNLLGACTKGGPIYIITEYCRYGDLVDYLHRNKHTFLQHHSDKRRPPSAELYSNALPVGLPLPSHVSLTGESDGGYMDMSKDESVDYVPMLDMKGDVKYADIESSNYMAPYDNYVPSAPERTCRATLINESPVLSYMDLVGFSYQVANGMEFLASKNCVHRDLAARNVLICEGKLVKICDFGLARDIMRDSNYISKGSTFLPLKWMAPESIFNSLYTTLSDVWSFGILLWEIFTLGGTPYPELPMNEQFYNAIKRGYRMAQPAHASDEIYEIMQKCWEEKFEIRPPFSQLVLLLERLLGEGYKKKYQQVDEEFLRSDHPAILRSQARLPGFHGLRSPLDTSSVLYTAVQPNEGDNDYIIPLPDPKPEVADEGPLEGSPSLASSTLNEVNTSSTISCDSPLEPQDEPEPEPQLELQVEPEPELEQLPDSGCPAPRAEAEDSFL
modifications: left off: small tags and cut ends
B3 was tested, and the “MBP Kinase Activity” value was “Strong”.

B4: BMX (protein)
chain: MDTKSILEELLLKRSQQKKKMSPNNYKERLFVLTKTNLSYYEYDKMKRGSRKGSIEIKKIRCVEKVNLEEQTPVERQYPFQIVYKDGLLYVYASNEESRSQWLKALQKEIRGNPHLLVKYHSGFFVDGKFLCCQQSCKAAPGCTLWEAYANLHTAVNEEKHRVPTFPDRVLKIPRAVPVLKMDAPSSSTTLAQYDNESKKNYGSQPPSSSTSLAQYDSNSKKIYGSQPNFNMQYIPREDFPDWWQVRKLKSSSSSEDVASSNQKERNVNHTTSKISWEFPESSSSEEEENLDDYDWFAGNISRSQSEQLLRQKGKEGAFMVRNSSQVGMYTVSLFSKAVNDKKGTVKHYHVHTNAENKLYLAENYCFDSIPKLIHYHQHNSAGMITRLRHPVSTKANKVPDSVSLGNGIWELKREEITLLKELGSGQFGVVQLGKWKGQYDVAVKMIKEGSMSEDEFFQEAQTMMKLSHPKLVKFYGVCSKEYPIYIVTEYISNGCLLNYLRSHGKGLEPSQLLEMCYDVCEGMAFLESHQFIHRDLAARNCLVDRDLCVKVSDFGMTRYVLDDQYVSSVGTKFPVKWSAPEVFHYFKYSSKSDVWAFGILMWEVFSLGKQPYDLYDNSQVVLKVSQGHRLYRPHLASDTIYQIMYSCWHELPEKRPTFQQLLSSIEPLREKDKH
modifications: left off: small tags and cut ends
For B4, the “MBP Kinase Activity” value was “Strong”.

B5: MUSK (protein)
chain: CCRRRKQWKNKKRESAAVTLTTLPSELLLDRLHPNPMYQRMPLLLNPKLLSLEYPRNNIEYVRDIGEGAFGRVFQARAPGLLPYEPFTMVAVKMLKEEASADMQADFQREAALMAEFDNPNIVKLLGVCAVGKPMCLLFEYMAYGDLNEFLRSMSPHTVCSLSHSDLSMRAQVSSPGPPPLSCAEQLCIARQVAAGMAYLSERKFVHRDLATRNCLVGENMVVKIADFGLSRNIYSADYYKANENDAIPIRWMPPESIFYNRYTTESDVWAYGVVLWEIFSYGLQPYYGMAHEEVIYYVRDGNILSCPENCPVELYNLMRLCWSKLPADRPSFTSIHRILERMCERAEGTVSV
modifications: left off: a dimerising Fc or GST
B5 was tested, and the “MBP Kinase Activity” value was “Negative”.

B6: TYRO3 (protein)
chain: LRKRRKETRFGQAFDSVMARGEPAVHFRAARSFNRERPERIEATLDSLGISDELKEKLEDVLIPEQQFTLGRMLGKGEFGSVREAQLKQEDGSFVKVAVKMLKADIIASSDIEEFLREAACMKEFDHPHVAKLVGVSLRSRAKGRLPIPMVILPFMKHGDLHAFLLASRIGENPFNLPLQTLIRFMVDIACGMEYLSSRNFIHRDLAARNCMLAEDMTVCVADFGLSRKIYSGDYYRQGCASKLPVKWLALESLADNLYTVQSDVWAFGVTMWEIMTRGQTPYAGIENAEIYNYLIGGNRLKQPPECMEDVYDLMYQCWSADPKQRPSFTCLRMELENILGQLSVLSASQDPLYINIERAEEPTAGGSLELPGRDQPYSGAGDGSGMGAVGGTPSDCRYILTPGGLAEQPGQAEHQPESPLNETQRLLLLQQGLLPHSSC
modifications: left off: a dimerising Fc or GST
With B6 the “MBP Kinase Activity” value was “Strong”.

B7: RET (protein)
chain: HCYHKFAHKPPISSAEMTFRRPAQAFPVSYSSSGARRPSLDSMENQVSVDAFKILEDPKWEFPRKNLVLGKTLGEGEFGKVVKATAFHLKGRAGYTTVAVKMLKENASPSELRDLLSEFNVLKQVNHPHVIKLYGACSQDGPLLLIVEYAKYGSLRGFLRESRKVGPGYLGSGGSRNSSSLDHPDERALTMGDLISFAWQISQGMQYLAEMKLVHRDLAARNILVAEGRKMKISDFGLSRDVYEEDSYVKRSQGRIPVKWMAIESLFDHIYTTQSDVWSFGVLLWEIVTLGGNPYPGIPPERLFNLLKTGHRMERPDNCSEEMYRLMLQCWKQEPDKRPVFADISKDLEKMMVKRRDYLDLAASTPSDSLIYDDGLSEEETPLVDCNNAPLPRALPSTWIENKLYGMSDPNWPGESPVPLTRADGTNTGFPRYPNDSVYANWMLSPSAAKLMDTFDS
modifications: left off: a dimerising Fc or GST
In the case of B7, the “MBP Kinase Activity” value is reported as “Strong”.

B8: PDGFRA (protein)
chain: KQKPRYEIRWRVIESISPDGHEYIYVDPMQLPYDSRWEFPRDGLVLGRVLGSGAFGKVVEGTAYGLSRSQPVMKVAVKMLKPTARSSEKQALMSELKIMTHLGPHLNIVNLLGACTKSGPIYIITEYCFYGDLVNYLHKNRDSFLSHHPEKPKKELDIFGLNPADESTRSYVILSFENNGDYMDMKQADTTQYVPMLERKEVSKYSDIQRSLYDRPASYKKKSMLDSEVKNLLSDDNSEGLTLLDLLSFTYQVARGMEFLASKNCVHRDLAARNVLLAQGKIVKICDFGLARDIMHDSNYVSKGSTFLPVKWMAPESIFDNLYTTLSDVWSYGILLWEIFSLGGTPYPGMMVDSTFYNKIKSGYRMAKPDHATSEVYEIMVKCWNSEPEKRPSFYHLSEIVENLLPGQYKKSYEKIHLDFLKSDHPAVARMRVDSDNAYIGVTYKNEEDKLKDWEGGLDEQRLSADSGYIIPLPDIDPVPEEEDLGKRNRHSSQTSEESAIETGSSSSTFIKREDETIEDIDMMDDIGIDSSDLVEDSFL
modifications: left off: a dimerising Fc or GST
In the case of B8, the “MBP Kinase Activity” value is reported as “Strong”.

B9: PDGFRA, T674I (protein)
chain: B8 chain with T125I
modifications: left off: a dimerising Fc or GST
For B9, the “MBP Kinase Activity” value was “Negative”.

B10: MET (protein)
chain: KKRKQIKDLGSELVRYDARVHTPHLDRLVSARSVSPTTEMVSNESVDYRATFPEDQFPNSSQNGSCRQVQYPLTDMSPILTSGDSDISSPLLQNTVHIDLSALNPELVQAVQHVVIGPSSLIVHFNEVIGRGHFGCVYHGTLLDNDGKKIHCAVKSLNRITDIGEVSQFLTEGIIMKDFSHPNVLSLLGICLRSEGSPLVVLPYMKHGDLRNFIRNETHNPTVKDLIGFGLQVAKGMKYLASKKFVHRDLAARNCMLDEKFTVKVADFGLARDMYDKEYYSVHNKTGAKLPVKWMALESLQTQKFTTKSDVWSFGVLLWELMTRGAPPYPDVNTFDITVYLLQGRRLLQPEYCPDPLYEVMLKCWHPKAEMRPSFSELVSRISAIFSTFIGEHYVHVNATYVNVKCVAPYPSLLSSEDNADDEVDTRPASFWETS
modifications: left off: small tags and cut ends
B10 was tested, and the “MBP Kinase Activity” value was “Strong”.
